Data as given in patent publication US20100048468A1 (Amgen, published 2010).
Like-named read-outs stand apart in the source and are kept apart here. Non-standard residues stand in square brackets, D forms with d. Primed or numbered codes have the meaning given here. No end group written: not given here. mPEG40k‑branched = branched 40 kDa PEG (2 × 20 kDa) maleimide, attached to the Cys thiol; branched PEG 40 kDa = branched polyethylene glycol of 40 kDa; branched PEG 40 kDa″ = 40 kDa branched poly(ethylene glycol); Aib′ = alpha aminobutyric acid (source's wording)

T1: mouse GLP-1 receptor (mouse, UniProt O35659 22-463)
T1 sequence (looked up): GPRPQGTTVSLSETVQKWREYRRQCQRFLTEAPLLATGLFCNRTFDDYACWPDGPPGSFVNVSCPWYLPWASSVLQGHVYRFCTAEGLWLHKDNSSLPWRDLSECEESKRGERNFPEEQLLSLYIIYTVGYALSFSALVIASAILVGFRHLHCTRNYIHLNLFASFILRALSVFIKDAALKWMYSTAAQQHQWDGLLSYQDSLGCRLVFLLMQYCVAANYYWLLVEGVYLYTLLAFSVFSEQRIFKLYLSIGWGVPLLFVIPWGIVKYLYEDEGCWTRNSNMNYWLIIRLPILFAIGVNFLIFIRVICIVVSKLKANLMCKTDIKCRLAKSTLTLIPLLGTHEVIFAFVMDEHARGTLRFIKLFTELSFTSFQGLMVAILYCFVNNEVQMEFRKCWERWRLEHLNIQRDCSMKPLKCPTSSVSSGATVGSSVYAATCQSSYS


Tests used:
[1] = target: T1, mouse GLP-1 receptor; assay: cell-based or functional assay
[2] = target: T2, human GLP-1 receptor (human, UniProt P43220 24-463); assay: cell-based or functional assay
[3] = target: T1, mouse GLP-1 receptor; assay: cell-based or functional assay; remark: listed apart in the source
[4] = target: T2, human GLP-1 receptor; assay: 125I-GLP-1 displacement, membranes of CHOK1 cells expressing human GLP-1 receptor
Procedure: (§1) Membrane Preparation. […] Cells were sedimented at 1500 rpm for 10 minutes. The resulting pellets were homogenized in 15 mls of ice cold sucrose buffer (25 mM Tris-HCl, 0.32 M Sucrose, 0.25 g/L, sodium azide, pH 7.4) with a motorized, glass fitted, Teflon homogenizer. The homogenate was centrifuged at 48,000×g at 4° C. for 10 minutes, resuspended in 25 ml assay buffer (50 mM Tris-HCl, 5 mM MgCl₂, 10 mg/ml protease-free BSA, 0.1 mg/ml STI, and 0.1 mg/ml Pefabloc, pH 7.4) with a Tissue-Tearor (Biospec Products), then centrifuged again at 48,000×g for 10 minutes. The pellets were homogenized for a third time in 15 ml assay buffer using the Tissue-Tearor and again centrifuged at 48,000×g for 10 minutes. The resulting pellet was resuspended in assay buffer at a wet weight concentration of 4 mg/ml.
(§2) Ligand Binding Assay. Binding assays were performed in 96-well U-bottom plates. […] The reaction was terminated by rapid filtration through Unfilter-96 GF/C glass fiber filter plates (FilterMate 196 Packard Harvester, PerkinElmer, Shelton, Conn.) pre-soaked in 0.5% polyethylenimine, followed by three washes with 300 μl of cold 50 mM Tris-HCl, pH 7.4. Bound radioactivity was determined using a TopCount microplate scintillation and luminescence counter (Packard Instrument Company, PerkinElmer, Shelton, Conn.). Nonlinear regression analyses of resulting concentration curves were performed using GraphPad Prism (GraphPad Software, Inc., San Diego, Calif.).
In vitro experiments were conducted to determine receptor binding and potency for a class of molecules having a glycine substitution at position 8, a cysteine substitution at position 22 and a variable C-terminus.

[5] = target: T2, human GLP-1 receptor; assay: cell-based or functional assay; remark: listed apart in the source
[6] = target: T2, human GLP-1 receptor; assay: cell-based or functional assay; remark: listed apart in the source
[7] = target: T1, mouse GLP-1 receptor; assay: cell-based or functional assay; remark: listed apart in the source
[8] = target: T2, human GLP-1 receptor; assay: 125I-GLP-1 displacement, membranes of CHOK1 cells expressing human GLP-1 receptor; remark: listed apart in the source
Procedure: as §1
as §2, with “Calif.). […]” for “Calif.).”

[9] = target: T2, human GLP-1 receptor; assay: cell-based or functional assay; remark: listed apart in the source
Target sequence in this assay (P43220 24-463): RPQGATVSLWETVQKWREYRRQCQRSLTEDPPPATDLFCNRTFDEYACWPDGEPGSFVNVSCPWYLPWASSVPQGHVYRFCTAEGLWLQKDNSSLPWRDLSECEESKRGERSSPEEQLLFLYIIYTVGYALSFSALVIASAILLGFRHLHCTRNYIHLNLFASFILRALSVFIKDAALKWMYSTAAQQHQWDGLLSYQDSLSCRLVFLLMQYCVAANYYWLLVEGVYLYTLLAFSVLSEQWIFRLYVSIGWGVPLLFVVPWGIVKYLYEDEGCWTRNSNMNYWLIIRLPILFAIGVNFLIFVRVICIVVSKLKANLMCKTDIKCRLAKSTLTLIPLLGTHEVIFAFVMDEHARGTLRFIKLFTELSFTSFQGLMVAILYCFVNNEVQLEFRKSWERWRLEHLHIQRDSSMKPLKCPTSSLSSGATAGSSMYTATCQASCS

[10] = target: T2, human GLP-1 receptor; assay: 125I-GLP-1 displacement, membranes of CHOK1 cells expressing human GLP-1 receptor; remark: listed apart in the source
Procedure: as §1, §2
The pegylated molecules were conjugated at the cysteine at position 38.

Binder	EC50 mouse [1]	EC50 human [2]	EC50 mouse [3]	IC50 [4]	EC50 human [5]	also measured
HGEGTFTSDVSSYLEGQAAKEFIAWLVKGRGC(branched PEG 40 kDa″)SG [cgGLP-5 (SEQ ID NO: 10 + 40k branched PEG)]	1.5 nM					
HGEGTFTSDVSSYLEGCAAKEFIAWLVKGRGSSGAPPPS (Unconjugated peptide) [HGEGTFTSDVSSYLEGCAAKEFIAWLVKGRGSSGAPPPS (SEQ ID NO: 7)]		0.1 nM	0.8 nM	100 nM		
HGEGTFTSDVSSYLEGCAAKEFIAWLVKGRGSSGAPPPS (not fully specified (residue 17); also: dimer: two peptides on one forked PEG-(maleimide)2) [cgGLP-14 (SEQ ID NO: 7 + 20k PEG dimer)]		0.6 nM	4 nM	300 nM		
HGEGTFTSDVSSYLEGCAAKEFIAWLKNGGPSSGAPPPS (Unconjugated peptide) [HGEGTFTSDVSSYLEGCAAKEFIAWLKNGGPSSGAPPPS (SEQ ID NO: 8)]		0.07 nM	0.3 nM	100 nM		
HGEGTFTSDVSSYLEGCAAKEFIAWLKNGGPSSGAPPPS (not fully specified (residue 17); also: dimer: two peptides on one forked PEG-(maleimide)2) [cgGLP-15 (SEQ ID NO: 8 + 20k PEG dimer)]		0.8 nM	2 nM	300 nM		
HGEGTFTSDVSSYLEGQAAKEFIAWLVKGRGC(PEG 30 kDa)SG [cgGLP-16 (SEQ ID NO: 10 + 30k PEG)]	4 nM				0.39 nM	
HGEGTFTSDVSSYLEGQAAKEFIAWLVKGRGC(PEG 30 kDa)SG [cgGLP-8 (SEQ ID NO: 10 + 30k PEG)]	3 nM				0.4 nM	
HGEGTFTSDVSSYLEGC(PEG 20 kDa)AAKEFIAWLVKGRGSSGAPPPS [cgGLP-12 (SEQ ID NO: 7 + 20k PEG monomer)]		1 nM	8 nM	1000 nM		
HGEGTFTSDVSSYLE[Aib′]QAAKEFIAWLVKGRGC(mPEG‑maleimide 20 kDa)SGG-NH2 [mgGLP-15 (SEQ ID NO: 24 + 20k PEG)]						EC50 human [6]: 0.2 nM; EC50 mouse [7]: 1.8 nM; IC50 [8]: 100 nM
HGEGTFTSDVSSYLE[Aib′]QAAKEFIAWLVKGRGC(mPEG40k‑branched)SG-NH2 [cgGLP-29 (SEQ ID NO: 22 + 40k branched PEG)]						EC50 human [6]: 0.15 nM; EC50 mouse [7]: 1 nM; IC50 [8]: 800 nM
HGEGTFTSDVSSYLEGC(branched PEG 40 kDa)AAKEFIAWLVKGRG [cgGLP-2 (SEQ ID NO: 6 + 40k branched PEG)]			3.6 nM			EC50 human [9]: 0.7 nM
HXEGTFTSDVSSYLEGQAAKEFIAWLVKGRGCSGG (Aib (2-aminoisobutyric acid) at position 8 (GLP-1 numbering; residue 2 of the entry), Unconjugated peptide) [H[Aib]EGT FTSDVSSYLEGQAAKEFIAWLVKGRGCSGG (SEQ ID NO: 11)]	> 50 nM				4 nM	IC50 [10]: 100 nM
HXEGTFTSDVSSYLEGQAAKEFIAWLVKGRGCSGG (Aib at position 8 (residue 2 of the entry); 20k PEG on the cysteine at position 38 (GLP-1 numbering; residue 32 of the entry)) [cgGLP-17 (SEQ ID NO: 11 + 20k PEG)]	> 100 nM				20 nM	IC50 [10]: 1000 nM
HXEGTFTSDVSSYLEGQAAKEFIAWLVKGRGCSGG (bAla (beta aminopropionic acid) at position 8 (GLP-1 numbering; residue 2 of the entry)) [H[bAla]EGT FTSDVSSYLEGQAAKEFIAWLVKGRGCSGG (SEQ ID NO: 12)]					> 100 nM	
